Data as given in US20160053025A1 (SAMSUNG ELECTRONICS, published 2016).

How the values were obtained:
Assay in all cases: ELISA, antibody coated, FLAG-tagged mutant Ang2 RBD detected with anti-FLAG-HRP
[1] = molecular target: Ang2 RBD A449 mutant (with alanine), FLAG-tagged (human) (UniProt O15123)
[2] = molecular target: T1, Ang2 RBD Q418A, FLAG-tagged (human, UniProt O15123 281-496, limits assumed)
T1 chain: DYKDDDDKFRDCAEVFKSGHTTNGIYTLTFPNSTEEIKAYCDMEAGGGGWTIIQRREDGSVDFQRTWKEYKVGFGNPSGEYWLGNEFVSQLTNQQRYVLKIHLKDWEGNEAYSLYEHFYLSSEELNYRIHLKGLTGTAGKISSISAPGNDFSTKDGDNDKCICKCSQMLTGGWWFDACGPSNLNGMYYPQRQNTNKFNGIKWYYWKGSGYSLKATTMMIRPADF
Description: (§1) To verify the epitope (or specific binding site) of the anti-Ang2 antibody prepared in Reference Example 2.3, an ELISA was performed using a recombinant protein where a receptor binding domain (RBD) of Ang2 protein in the form of being tagged with Flag was mutated by artificial means.
(§2) Each well of a 96-well MaxiSorp™ flat-bottom plate (Nunc) was coated with 50 ul (microliter) of 1000 nM antibody. Then, the plate was washed five times with 0.05% (v/v) Tween-20-containing PBS (PBST) and blocked with 1% (v/v) BSA-containing PBS at a room temperature for 2 hours. 250 ng of each mutant Ang2 protein obtained by substituting S417, Q418, P419, N421, 1434, D448, A449, P452, Y460, N467, K468, or F469 residue of Ang2 protein tagged with a FLAG sequence ([…], Sigma) at its N-terminal with alanine was added to each well of the plate, which was then allowed to react at a room temperature for 2 hours.
(§3) Finally, 50 ul of TMB substrates (Cell signaling) was added to each well of the plate to induce color development at a room temperature for 3 min. and the reaction was ceased by the addition of 50 ul of Stop solution (Cell signaling) and then, OD450 values were measured on a plate reader (Molecular Devices). By comparing binding affinities with mutated Ang2 to those of unmutated Ang2, each epitope of Ang2 antibodies was identified. The obtained measurement results of the binding affinities (%) with mutant Ang2 against the binding affinity with the native Ang2 are shown in the following Table 13.

[3] = molecular target: T2, Ang2 RBD P419A, FLAG-tagged (human, UniProt O15123 281-496, limits assumed)
T2 chain: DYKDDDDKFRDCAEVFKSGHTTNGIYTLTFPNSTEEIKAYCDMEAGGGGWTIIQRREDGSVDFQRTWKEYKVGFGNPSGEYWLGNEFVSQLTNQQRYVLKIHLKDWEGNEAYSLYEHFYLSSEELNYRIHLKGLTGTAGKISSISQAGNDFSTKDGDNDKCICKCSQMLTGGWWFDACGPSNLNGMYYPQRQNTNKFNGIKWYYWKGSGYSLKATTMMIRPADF
Description: as §1, §2, §3

[4] = molecular target: T3, Ang2 RBD D448A, FLAG-tagged (human, UniProt O15123 281-496, limits assumed)
T3 chain: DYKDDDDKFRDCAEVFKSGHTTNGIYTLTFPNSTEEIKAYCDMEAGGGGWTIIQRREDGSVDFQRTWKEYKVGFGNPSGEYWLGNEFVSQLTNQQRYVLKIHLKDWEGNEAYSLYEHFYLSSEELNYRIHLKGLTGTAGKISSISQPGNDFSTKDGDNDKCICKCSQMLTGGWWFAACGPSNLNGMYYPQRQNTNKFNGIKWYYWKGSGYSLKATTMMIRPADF
Description: as §1, §2, §3

[5] = molecular target: T4, Ang2 RBD Y460A, FLAG-tagged (human, UniProt O15123 281-496, limits assumed)
T4 chain: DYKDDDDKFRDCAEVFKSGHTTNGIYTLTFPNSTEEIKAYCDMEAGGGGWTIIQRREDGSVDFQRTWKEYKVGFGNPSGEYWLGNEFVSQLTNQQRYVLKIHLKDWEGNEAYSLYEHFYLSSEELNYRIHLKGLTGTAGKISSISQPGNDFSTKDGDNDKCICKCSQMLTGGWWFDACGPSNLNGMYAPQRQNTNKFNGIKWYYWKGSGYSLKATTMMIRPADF
Description: as §1, §2, §3

[6] = molecular target: T5, Ang2 RBD K468A, FLAG-tagged (human, UniProt O15123 281-496, limits assumed)
T5 chain: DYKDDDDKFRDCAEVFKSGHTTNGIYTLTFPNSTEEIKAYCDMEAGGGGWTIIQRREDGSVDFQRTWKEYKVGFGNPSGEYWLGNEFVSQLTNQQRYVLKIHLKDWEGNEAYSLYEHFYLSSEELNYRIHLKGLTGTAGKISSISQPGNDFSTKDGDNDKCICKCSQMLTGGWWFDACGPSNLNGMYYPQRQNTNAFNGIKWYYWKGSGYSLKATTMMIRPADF
Description: as §1, §2, §3

[7] = molecular target: T6, Ang2 RBD F469A, FLAG-tagged (human, UniProt O15123 281-496, limits assumed)
T6 chain: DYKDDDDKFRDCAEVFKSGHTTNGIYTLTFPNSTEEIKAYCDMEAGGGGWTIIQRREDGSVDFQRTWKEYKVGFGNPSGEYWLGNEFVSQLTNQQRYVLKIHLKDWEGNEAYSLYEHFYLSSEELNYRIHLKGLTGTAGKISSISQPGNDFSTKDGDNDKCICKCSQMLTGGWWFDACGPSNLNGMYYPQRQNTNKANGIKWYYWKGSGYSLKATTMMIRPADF
Description: as §1, §2, §3

[8] = molecular target: T7, Ang2 RBD S417A, FLAG-tagged (human, UniProt O15123 281-496, limits assumed)
T7 chain: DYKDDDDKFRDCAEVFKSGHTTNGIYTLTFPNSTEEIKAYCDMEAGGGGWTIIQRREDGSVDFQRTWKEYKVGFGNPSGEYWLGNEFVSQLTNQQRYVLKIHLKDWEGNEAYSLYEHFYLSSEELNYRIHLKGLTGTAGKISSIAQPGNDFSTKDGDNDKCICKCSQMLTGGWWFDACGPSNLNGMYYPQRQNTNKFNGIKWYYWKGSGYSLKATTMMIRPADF
Description: as §1, §2, §3

binding affinity (%) with mutant Ang2 against the binding affinity with the native Ang2 [1]: 97.9%
binding affinity (%) with mutant Ang2 against the binding affinity with the native Ang2 [2]: 38.9%
binding affinity (%) with mutant Ang2 against the binding affinity with the native Ang2 [3]: 41.1%
binding affinity (%) with mutant Ang2 against the binding affinity with the native Ang2 [4]: 105%
binding affinity (%) with mutant Ang2 against the binding affinity with the native Ang2 [5]: 103%
binding affinity (%) with mutant Ang2 against the binding affinity with the native Ang2 [6]: 110%
binding affinity (%) with mutant Ang2 against the binding affinity with the native Ang2 [7]: 109%
binding affinity (%) with mutant Ang2 against the binding affinity with the native Ang2 [8]: 101%
B1: SAIT-ANG2-AB-m10D6 (antibody, V domains shown)
VH: DVQLQESGPDLVKPSQSLSLTCTVTGYSITSDYAWNWIRQFPGNKLEWMGYINYSGNTDYNPSLKSRSSITRDTSKNQFFLQLNSVTTGDTATYYCARGNFEGAMDYWGQGTSVTVSS
VL: SIVMTQTPKFLLVSAGDRVTITCKASQSVSNDVAWYQQKPGQSPKLLIYYASNRYPGVPDRFTGSGYGTDFTFTISTVQAEDLAVYFCQQDYSSPWTFGGGTKLEIK
notes: Mouse monoclonal antibody purified from a hybridoma (KCLRF-BP-00295); it is not applied here; also called mouse antibody 10D6; 10D6 antibody
